# Results as given in the supplement of paper PMC12764529.
# ± gives the half width of the 95% confidence interval.
# Columns and labels:
# [1] = folding stability dG unfold from trypsin proteolysis; higher = more stable
# Method in brief: (§1)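 Only designs with AlphaFold2 dimer inter-PAE above 15 were retained; each was a mini-protein under 80 residues with no cysteine, in a PA-tagged cDNA display construct. After digestion with trypsin and chymotrypsin and sequencing, K50 was inferred by Bayesian fitting of counts, and unfolding free energy was derived per protease or combined against a sequence-predicted unfolded-state K50 and a shared folded-state K50.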
# [2] = folding stability dG unfold from chymotrypsin proteolysis; higher = more stable
# Method in brief: as §1
# [3] = folding stability dG unfold (combined trypsin and chymotrypsin); higher = more stable
# Method in brief: as §1
Sequence,folding stability dG unfold [1] [kcal/mol],folding stability dG unfold [2] [kcal/mol],folding stability dG unfold [3] [kcal/mol]
SAGGIRIRFWVPSPEEAREMAETIAKWLMEEHPGAKIKIEPKKVEPNPDNGYYRVEVPIKIVLPGQPISAGG [r13_585_TrROS],1.36 ± 0.051,1.89 ± 0.057,1.7 ± 0.042
SAGGITIELRNPNGEPVEVHLKRDPDGTLELSVHMRGPEGRHYMVTMTIKVKNNGIEIDKFDNWYPLPSAGG [r13_451_TrROS],3.11 ± 0.092,4.16 ± 0.084,3.79 ± 0.11
SAGGITINEDGTITIEVNGKTYTIKLPPGAEITKIEVLEDGTIKITLRINGKTVTLELKVYKEGEEPSAGGS [r16_635_TrROS_Hall],4.56 ± 0.42,6.55 ± 0.68,> 6
SAGGKATVTITEVKVETETVTLKYDPETGELVEKTETVTRVEVKTITIEADKNPELAEELLKKLGIESAGGS [r16_467_TrROS_Hall],1.69 ± 0.11,2.93 ± 0.25,2.56 ± 0.28
SAGGKEVKIEIEEKDGKLVIKITVKTEEELKEEIKKLLEEEFGLEVEEVKVEKNKNGEVTIYVVIKKKSAGG [r13_158_TrROS_Hall],1.45 ± 0.17,2.64 ± 0.2,2.51 ± 0.44
SAGGKEVLTVTVEVEIDGVLIRVEAEVTLDEDGNLTVTITRIEIRPLPPPKIDLRDLTDEQRKELGIESAGG [r13_964_TrROS_Hall],2.04 ± 0.096,2.02 ± 0.086,1.93 ± 0.13
SAGGKEYRNPENGQKIPPGDTEEEREKHAREHAKPVIVPIEIPIVIKFGDVIFPIPITFEIPLTPGGSAGGS [r16_387_TrROS],0.0408 ± 0.054,-0.0327 ± 0.28,0.058 ± 0.32
SAGGKFDIMVKVEPPDGKEEELPIKFDSPEEIIEEARAIAEQHGPGDKLKVEIYYPGTGRPIEFEIPSAGGS [r8_107_TrROS],0.799 ± 0.043,-0.17 ± 0.18,0.336 ± 0.34
SAGGKFKIVKIEVEEKTVKVKNKDGKIEKKKVKVIKVKIYKDGKLIKEVTFKSKEDMLNALKELLKKSAGGS [r8_21_TrROS_Hall],3.06 ± 0.11,4.53 ± 0.23,4.35 ± 0.3
SAGGKGPKKIILPLKFKIKTKPNEKKSKIKFKLSLKLFPKAKKVEVKSSIKPLKNNYALLDFDIVIEASAGG [r13_872_TrMRF],3.53 ± 0.23,3.6 ± 0.13,3.56 ± 0.45
SAGGKIEELAKELAKKLNIEKVEVEEKDGKLVVKLVVKDKKTNKYYRITIEVDDDGNIKISIEPLPPSAGGS [r16_433_TrROS_Hall],3.91 ± 0.2,5.17 ± 0.12,5.12 ± 0.2
SAGGKIKIKINGKTYTVEDAEIIEVKKNKNGKKEIIIKIKVNGKTYEIVISEEDLKKIKPGDTITLKSAGGS [r16_638_TrROS_Hall],2.4 ± 0.053,3.19 ± 0.045,2.96 ± 0.059
SAGGKIKIVLSAEELEKKFGKSIEELAAELAKKLFPNKKVKVKKVKIEKDENGKEKLYVEVEIEPEKPSAGG [r13_723_TrROS_Hall],2.91 ± 0.15,3.2 ± 0.073,3.11 ± 0.17
SAGGKITIEIEEEDGYLVIRIREEKEVYDEETGELKKEEKEITIVLPLEEAKKLAEELNLEIEIVEPSAGGS [r8_337_TrROS_Hall],2.09 ± 0.079,2.49 ± 0.16,2.42 ± 0.23
SAGGKIWIPMDFLKEIAEEGNIKEIEVNPDDGDMYTIKFPNLADKFGEPVTISIRRPPGGNPWIEIEPSAGG [r13_163_TrROS],0.107 ± 0.1,1.08 ± 0.17,0.717 ± 0.15
SAGGKKIEIEIVFKEGEKAPSAEEIAKKLLEEIPNIKITSIEIVDVEYDEETGEKYVVVKITIEVEPPSAGG [r13_10_TrROS_Hall],2.96 ± 0.18,3.14 ± 0.14,3.17 ± 0.28
SAGGKKIKAKVIEIKKIGDKVLVTIERPDGSPDEVLIDKKEVAEKITPESEVEIEVFPDGSVKIKVGSAGGS [r16_2_TrMRF],1.96 ± 0.087,2.03 ± 0.13,2.15 ± 0.19
SAGGKKIKITVKELKKKLEEEGYEIEEIEIYNKKTGKKIKTIKEGDVIELPENVKNVVIKVKIKKKKSAGGS [r8_243_TrROS_Hall],2.16 ± 0.19,2.86 ± 0.17,2.57 ± 0.34
SAGGKKIRIVMTEEEIKKLAEALAKELNVEVKIVKVEKKTVFDKNGKPVKTYVVVEIEVKKLPPGVKLSAGG [r13_943_TrROS_Hall],1.3 ± 0.099,1.56 ± 0.056,1.57 ± 0.16
SAGGKKKKKVKIKIEIAIVIPEEDLSEEERKKLAEELAERLKRELAEKLGLSEDEIEEIEVTVYRLPPSAGG [r13_5_TrROS_Hall],1.67 ± 0.092,2.33 ± 0.067,2.04 ± 0.21
SAGGKKKKPKKKIKIKIVKVEKKYDKKTGKLKEVRIEIEIEAESEEEAKKLAEELAKKLNIEVEVKKKSAGG [r13_606_TrROS_Hall],1.28 ± 0.11,2.44 ± 0.096,2.01 ± 0.32

Sequence,folding stability dG unfold [1] [kcal/mol],folding stability dG unfold [2] [kcal/mol],folding stability dG unfold [3] [kcal/mol]
SAGGKKKKTIVIVLEVSEEEAEKIIEALKKELEKKGFKIEKIEVRKVPDKPMVIVTIKLENGEELTFISAGG [r13_421_TrROS_Hall],1.97 ± 0.052,2.64 ± 0.055,2.44 ± 0.073
SAGGKKKKVITVEVPPEATAEELLAALKKADKVFIRTKDGKVREIKVGEKVSPEELKVKPGDTVEIYVSAGG [r13_399_TrROS_Hall],1.12 ± 0.12,1.74 ± 0.096,1.53 ± 0.24
SAGGKKKKVKVKVVKVEKLENGTYKVVLEVEVDGKKITLVKEFKTKEDLEKKPKEIEITVEELKKLLKSAGG [r13_540_TrROS_Hall],2.46 ± 0.13,4.32 ± 0.22,3.87 ± 0.37
SAGGKKKVFLLENGELVVFDPETGKLEPVKLPEIPLTVEVEFEEGEGKIRVTVTNPAGLKLEFEFDFSAGGS [r16_453_TrMRF],2.21 ± 0.12,3.69 ± 0.1,3.19 ± 0.15
SAGGKKKVTIEIRKNPEEPGKYIIRVKVDGKEIEIEVSEEDLEEILAALKKLLPPGAKIEKIEIRELPSAGG [r13_519_TrROS_Hall],2.38 ± 0.098,3.85 ± 0.081,3.45 ± 0.12
SAGGKKKYRIKITYKDEGKLYEVPEDVKATVDPNNVVYIEVDSKEAVDELVKAIAPKDGLEVEVEPGSAGGS [r8_131_TrMRF],0.52 ± 0.044,1.18 ± 0.087,0.916 ± 0.093
SAGGKKLLIKVRIEVFNENGELVREEEIEIEVEGMSEEELEELARELLAKLPPENVKIEVEIVELEESAGGS [r16_774_TrROS_Hall],4.34 ± 0.94,4.31 ± 0.37,4.16 ± 0.35
SAGGKKPKIEVKIEFDEETGKLRIEIRTEDGKLIAEKEIEIDGVLFKVKVIVKDGKLVIEIEAFPKKSAGGS [r16_631_TrROS_Hall],2.79 ± 0.15,3.99 ± 0.12,3.65 ± 0.25
SAGGKKPKKLTPEQIEELAKALAPEGAEVKVEVVEVTEKTVVVKITVKDKETGEEKTIEITLPLPEESAGGS [r16_486_TrROS_Hall],2.45 ± 0.18,1.73 ± 0.14,2.24 ± 0.22
SAGGKKPKVKKVKVKLTLVDPETGEEVEVEAELYELPDGYVVLTVRNKKTGKTYRFVFKDGKLYLEPVSAGG [r13_117_TrROS_Hall],2.88 ± 0.1,4.46 ± 0.11,4.12 ± 0.35
SAGGKKTVKIEIVLPKEELEELLKKLLEEAKKKGLKVEVKVELKEVEVEVNGKKKKVLVLKVEIKVEPSAGG [r13_974_TrROS_Hall],3.17 ± 0.12,3.76 ± 0.14,3.55 ± 0.19
SAGGKKTYKVRIEIKVTDPNGKKRTIEIELEVPESEEEAEKLAKELAEKLKEKGYKVEIVKIEVEPLSAGGS [r16_525_TrROS_Hall],3.98 ± 0.2,4.08 ± 0.064,4.03 ± 0.12
SAGGKKYKVIKEIEITLENGKKIKIKLIEYNEKTNEYILEITYPDGKKITITVPKGMSIEEALKKLLSSAGG [r13_470_TrROS_Hall],2.37 ± 0.16,2.52 ± 0.051,2.41 ± 0.12
SAGGKKYVLIKVKVRVEKEVNGEKKEVELELEILVPVDEETGKTPEEKAKELAKKLPPEVTEVKIEPVSAGG [r13_335_TrROS_Hall],1.63 ± 0.15,2.86 ± 0.061,2.21 ± 0.31
SAGGKLKIKIGDKEYTVESVEIIEERPLPGGGPVYLIRLKFKDGPALIEIPPNIPSSISNNGTLVAGSAGGS [r16_638_TrMRF],1.36 ± 0.04,1.95 ± 0.058,1.75 ± 0.095
SAGGKLPLPPGTEVEFLFRSPLDPRRLYLVRVRFEPVPPDRLRLRPRVFNPETGEEVEFEFEVPLDEGSAGG [r13_268_TrMRF],2.46 ± 0.041,3.234 ± 0.025,3 ± 0.052
SAGGKLQLLLRSPDGNVEVALSFEKLPDGKVKVTATVRNKKTGRTYRLEVTFDLKTKKIEIKLEELPSAGGS [r16_684_TrROS_Hall],4.78 ± 0.22,6.24 ± 0.14,> 6
SAGGKMKTVKVTITDKDGRKIEIVDVTVKDNKVYVVVKDKKTKKTIVLEFDTKEEAEEAIKKLLEAKSAGGS [r16_736_TrROS_Hall],0.976 ± 0.071,2.52 ± 0.066,2.18 ± 0.34
SAGGKMLVKIKIKVTIYDKNGKPVKEVELELVFPSLEDLLNALKSLSPEKIKKVEIVSIEEIDEEDLSAGGS [r16_677_TrROS_Hall],3.5 ± 0.26,4.06 ± 0.32,3.73 ± 0.21
SAGGKMSLEDIKEVKITKISEEELKKNGTIKIEIYNKNGKLIKTIEIKIKPVKVKDKDGKEKTLEELKSAGG [r13_864_TrROS_Hall],0.897 ± 0.042,1.49 ± 0.031,1.29 ± 0.11
